Results taken from patent US20080044360A1 (COLLAGEN MEDICAL, published 2008).
Bridge positions count the residues as written; N and C are the ends. Square brackets hold non-standard residues; d marks the D form. Primed or numbered codes have the meaning given here. Side chains are listed from the residue outwards. Ends that are not written are not given here. * marks the point of attachment. Gd^D = GdDOTAGA (gadolinium DOTAGA chelate); Bip = N[C@@H](Cc1ccc(-c2ccccc2)cc1)C(=O)O; Tyr(3-I) = N[C@@H](Cc1ccc(O)c(I)c1)C(=O)O; Phe(4-NH2) = Nc1ccc(C[C@H](N)C(=O)O)cc1; Gd^T(3) = GdDTPA attached via thiourea; 1,4 AMB(Gd^T) = not defined here; Gd^G = not defined here; Gd^T = not defined here; Gd^T″ = GdDTPA-thiourea; NH(CH2)6NH2 = NCCCCCCN*; AEEA = NCCOCCOCC(=O)O

Assays:
[1] = biological target: T1, rat collagen, acid soluble, type I, rat tail (Upstate 08-115) (rat, UniProt P02454 152-1207; P02466 86-1125); test: dried collagen assay
T1 construct: tissue extract, gelled and dried in wells; also called dried rat collagen
T1 sequence (P02454 152-1207, chain 1 of 2): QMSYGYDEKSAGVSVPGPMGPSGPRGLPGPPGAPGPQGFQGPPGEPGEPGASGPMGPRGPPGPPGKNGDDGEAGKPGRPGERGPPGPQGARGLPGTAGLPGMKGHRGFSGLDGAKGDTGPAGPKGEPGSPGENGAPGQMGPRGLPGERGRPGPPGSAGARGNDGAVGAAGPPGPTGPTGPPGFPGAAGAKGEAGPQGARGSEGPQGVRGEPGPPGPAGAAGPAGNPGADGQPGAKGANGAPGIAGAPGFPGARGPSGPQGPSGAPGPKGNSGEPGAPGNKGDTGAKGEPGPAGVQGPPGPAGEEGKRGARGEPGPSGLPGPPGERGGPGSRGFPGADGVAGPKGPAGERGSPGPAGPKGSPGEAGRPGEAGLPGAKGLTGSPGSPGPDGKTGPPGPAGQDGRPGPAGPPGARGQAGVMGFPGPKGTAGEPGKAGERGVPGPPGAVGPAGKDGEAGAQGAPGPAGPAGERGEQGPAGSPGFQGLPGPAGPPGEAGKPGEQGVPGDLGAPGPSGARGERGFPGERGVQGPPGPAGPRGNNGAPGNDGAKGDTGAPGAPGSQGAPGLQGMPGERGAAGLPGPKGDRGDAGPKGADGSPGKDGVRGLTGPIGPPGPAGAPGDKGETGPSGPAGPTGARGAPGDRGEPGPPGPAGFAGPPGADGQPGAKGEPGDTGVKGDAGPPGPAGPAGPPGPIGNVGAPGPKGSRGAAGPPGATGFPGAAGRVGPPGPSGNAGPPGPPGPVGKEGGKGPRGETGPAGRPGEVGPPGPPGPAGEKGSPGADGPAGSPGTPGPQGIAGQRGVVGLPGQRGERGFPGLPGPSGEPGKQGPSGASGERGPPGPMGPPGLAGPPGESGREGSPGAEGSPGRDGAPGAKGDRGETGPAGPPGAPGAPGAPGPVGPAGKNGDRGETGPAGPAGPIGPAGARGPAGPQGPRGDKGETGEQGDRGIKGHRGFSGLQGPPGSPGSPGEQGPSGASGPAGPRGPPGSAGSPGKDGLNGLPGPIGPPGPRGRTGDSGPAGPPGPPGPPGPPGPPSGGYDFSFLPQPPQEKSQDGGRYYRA
T1 sequence (P02466 86-1125, chain 2 of 2): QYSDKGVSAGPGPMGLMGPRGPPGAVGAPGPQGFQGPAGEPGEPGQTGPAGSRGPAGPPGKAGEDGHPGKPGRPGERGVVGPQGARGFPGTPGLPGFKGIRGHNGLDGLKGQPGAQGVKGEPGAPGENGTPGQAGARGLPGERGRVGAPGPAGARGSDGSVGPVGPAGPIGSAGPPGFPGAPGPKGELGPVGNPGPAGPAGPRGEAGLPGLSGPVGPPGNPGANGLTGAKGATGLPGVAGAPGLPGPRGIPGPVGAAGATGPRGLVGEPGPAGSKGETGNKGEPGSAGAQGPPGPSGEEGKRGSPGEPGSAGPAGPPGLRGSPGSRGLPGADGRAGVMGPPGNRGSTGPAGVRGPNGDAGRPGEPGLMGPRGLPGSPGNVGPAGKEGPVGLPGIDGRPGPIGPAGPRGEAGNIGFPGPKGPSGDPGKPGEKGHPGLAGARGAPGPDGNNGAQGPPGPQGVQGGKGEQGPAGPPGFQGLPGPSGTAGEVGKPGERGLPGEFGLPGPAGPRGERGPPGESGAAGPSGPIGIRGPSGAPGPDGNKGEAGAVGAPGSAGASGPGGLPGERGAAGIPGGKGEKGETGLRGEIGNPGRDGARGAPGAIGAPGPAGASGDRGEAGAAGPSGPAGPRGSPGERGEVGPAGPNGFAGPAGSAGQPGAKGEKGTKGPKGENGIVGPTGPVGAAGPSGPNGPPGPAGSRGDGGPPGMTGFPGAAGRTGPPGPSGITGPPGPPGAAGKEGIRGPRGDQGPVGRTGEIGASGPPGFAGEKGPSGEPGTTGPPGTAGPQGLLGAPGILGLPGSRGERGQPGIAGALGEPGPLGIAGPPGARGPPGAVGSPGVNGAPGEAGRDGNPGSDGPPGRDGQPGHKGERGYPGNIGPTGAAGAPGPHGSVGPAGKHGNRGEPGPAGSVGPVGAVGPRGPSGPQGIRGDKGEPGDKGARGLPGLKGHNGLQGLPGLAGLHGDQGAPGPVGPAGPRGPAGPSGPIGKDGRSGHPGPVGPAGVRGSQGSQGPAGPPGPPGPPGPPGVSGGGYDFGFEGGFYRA

[2] = biological target: T2, human collagen type I, acid soluble, extracted from placenta (Sigma C7774) (human, UniProt P02452 162-1218; P08123 80-1119); test: dried collagen assay
T2 construct: tissue extract, gelled and dried in wells; also called dried human collagen; h-Collagen
T2 sequence (P02452 162-1218 limits assumed, chain 1 of 2): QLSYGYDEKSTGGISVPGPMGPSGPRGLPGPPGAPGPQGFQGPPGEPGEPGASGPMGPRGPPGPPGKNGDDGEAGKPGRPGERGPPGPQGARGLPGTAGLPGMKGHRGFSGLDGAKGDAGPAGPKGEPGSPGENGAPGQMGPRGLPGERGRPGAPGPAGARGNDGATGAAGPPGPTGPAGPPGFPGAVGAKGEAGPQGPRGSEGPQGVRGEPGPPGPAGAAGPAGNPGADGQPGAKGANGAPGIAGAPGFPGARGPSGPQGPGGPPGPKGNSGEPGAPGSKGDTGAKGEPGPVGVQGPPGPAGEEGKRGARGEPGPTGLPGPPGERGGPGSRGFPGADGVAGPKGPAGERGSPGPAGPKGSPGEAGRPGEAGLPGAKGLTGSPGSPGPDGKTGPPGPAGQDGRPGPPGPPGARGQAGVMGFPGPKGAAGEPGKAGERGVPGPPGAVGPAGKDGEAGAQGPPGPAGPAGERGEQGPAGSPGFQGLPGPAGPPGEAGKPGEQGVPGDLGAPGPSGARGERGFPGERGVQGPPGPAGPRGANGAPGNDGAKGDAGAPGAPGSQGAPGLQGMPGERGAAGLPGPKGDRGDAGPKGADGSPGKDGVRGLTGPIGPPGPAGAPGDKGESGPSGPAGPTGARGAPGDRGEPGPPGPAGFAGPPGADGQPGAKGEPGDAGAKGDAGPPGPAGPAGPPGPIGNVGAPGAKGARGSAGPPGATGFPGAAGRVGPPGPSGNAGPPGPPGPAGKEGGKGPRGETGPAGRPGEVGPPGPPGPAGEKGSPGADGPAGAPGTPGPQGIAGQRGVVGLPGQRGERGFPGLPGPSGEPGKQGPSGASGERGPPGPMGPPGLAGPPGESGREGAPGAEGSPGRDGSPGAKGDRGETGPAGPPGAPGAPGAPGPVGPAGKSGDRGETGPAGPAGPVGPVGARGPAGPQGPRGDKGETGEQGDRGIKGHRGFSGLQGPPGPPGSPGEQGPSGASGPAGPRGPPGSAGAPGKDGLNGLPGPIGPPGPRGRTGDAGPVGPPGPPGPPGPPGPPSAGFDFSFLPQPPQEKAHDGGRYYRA
T2 sequence (P08123 80-1119 limits assumed, chain 2 of 2): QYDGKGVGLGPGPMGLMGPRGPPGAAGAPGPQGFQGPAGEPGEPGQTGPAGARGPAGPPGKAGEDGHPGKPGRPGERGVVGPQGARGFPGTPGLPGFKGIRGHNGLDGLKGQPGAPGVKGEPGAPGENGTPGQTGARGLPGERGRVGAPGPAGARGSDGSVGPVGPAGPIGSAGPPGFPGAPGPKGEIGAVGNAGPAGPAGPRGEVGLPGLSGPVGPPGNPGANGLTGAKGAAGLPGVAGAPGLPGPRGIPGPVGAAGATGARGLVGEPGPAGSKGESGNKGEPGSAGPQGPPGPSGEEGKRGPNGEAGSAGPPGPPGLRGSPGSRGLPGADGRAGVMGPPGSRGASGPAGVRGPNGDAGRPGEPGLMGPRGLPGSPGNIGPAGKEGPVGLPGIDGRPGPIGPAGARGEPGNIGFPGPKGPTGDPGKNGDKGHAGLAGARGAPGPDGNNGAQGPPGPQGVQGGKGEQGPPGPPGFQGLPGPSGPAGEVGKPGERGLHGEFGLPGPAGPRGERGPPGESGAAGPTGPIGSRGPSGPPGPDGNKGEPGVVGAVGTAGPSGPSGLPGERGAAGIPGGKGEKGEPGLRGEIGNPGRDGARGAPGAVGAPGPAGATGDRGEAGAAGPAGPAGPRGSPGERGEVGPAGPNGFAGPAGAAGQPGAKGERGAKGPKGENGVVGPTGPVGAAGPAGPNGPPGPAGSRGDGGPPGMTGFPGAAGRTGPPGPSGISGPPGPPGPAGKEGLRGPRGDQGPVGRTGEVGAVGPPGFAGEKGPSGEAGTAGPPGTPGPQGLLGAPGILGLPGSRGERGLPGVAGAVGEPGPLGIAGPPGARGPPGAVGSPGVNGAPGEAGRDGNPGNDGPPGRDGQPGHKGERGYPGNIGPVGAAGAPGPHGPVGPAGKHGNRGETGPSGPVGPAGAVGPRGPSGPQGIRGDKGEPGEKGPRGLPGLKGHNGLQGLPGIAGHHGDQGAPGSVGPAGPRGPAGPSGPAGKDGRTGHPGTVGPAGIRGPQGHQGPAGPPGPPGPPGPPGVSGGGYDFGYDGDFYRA

| Binder | % bound [1] | % bound [2] |
| --- | --- | --- |
| {Gd^T″}-GK([Gly-Gd^T″])WHCTTK(Gd^T″)FPHHYCLY[Bip] (disulfide 5-14; not fully specified (C-terminus), also called Comp ID No:800) [Compound ID 800] | 88% | 85% |
| {Gd^T(3)}-K(Gd^T(3))K(Gd^T(3))WHCTTK(Gd^T(3))FPHHYCLY[Bip] (disulfide 5-14 (inferred)) [Compound ID 997] | 55% | 53% |
| {Gd^T(3)}-GK([Gly-Gd^T(3)])WHCTTYFPHHYCLY[Bip] (disulfide 5-14) [Compound ID 950] | 79% | 78% |
| {Gd^G}-GQWTCSGDAYTWHCAYE (disulfide 5-14 (inferred); not fully specified (C-terminus); reading uncertain) [Compound ID 820] | 29% | 60% |
| {Gd^T″}-GAWTCSGDEYTWHCNYE (disulfide 5-14 (inferred); not fully specified (C-terminus)) [Compound ID 830] | 11% | 26% |
| {Gd^T}-GQWTCSGDEYTWHCNYA (disulfide 5-14 (inferred); not fully specified (C-terminus); reading uncertain) [Compound ID 841] | 28% | 51% |
| {Gd^T}-GQWTCSGDEYTWHCAYE (disulfide 5-14 (inferred); not fully specified (C-terminus); reading uncertain) [Compound ID 839] | 11% | 30% |
| GQWTCSGDAYTWHCNYE (disulfide 5-14 (inferred); not fully specified (N-terminus, C-terminus)) [Compound ID 838] | 61% | 70% |
| {Gd^T″}-GK([Gly-Gd^T″])WHCTTYFPTHYCLYG (disulfide 5-14 (inferred)) [Compound ID 962] | 10% | 20% |
| {Gd^T″}-GK([Gly-Gd^T″])WHCYTK(Gd^T″)FPHHYCK(Gd^T″)YY (disulfide 5-14 (inferred)) [Compound ID 1013] | 88% | 81% |
| {Gd^T″}-GK([Gly-Gd^T″])WHCTTYFPHHVCLYG (disulfide 5-14 (inferred)) [Compound ID 965] | 11% | 26% |
| {Gd^T″}-GK([Gly-Gd^T″])WHCTTK(Gd^T″)FPHHYCLYY (disulfide 5-14 (inferred); not fully specified (C-terminus)) [Compound ID 980] | 80% | 85% |
| {Gd^T″}-GK([Gly-Gd^T″])WHCYTK(Gd^T″)FPHHYCVYG (disulfide 5-14 (inferred); not fully specified (C-terminus)) [Compound ID 978] | 66% | 64% |
| {Gd^T″}-GK([Gly-Gd^T″])WHCYTYFPYHYCVYG (disulfide 5-14 (inferred)) [Compound ID 963] | 91% | 82% |
| {Gd^T″}-GK([Gly-Gd^T″])WHCTTYFPHHYCL[Phe(4-NH2)](Gd^T″)G (disulfide 5-14 (inferred); not fully specified (C-terminus)) [Compound ID 971] | 25% | 21% |
| {Gd^D}-K(Gd^D)K(Gd^D)WHCYTYFPHHYCVYG (disulfide 5-14 (inferred)) [Compound ID 1014] | 61% | 72% |
| {Gd^T″}-GK([Gly-Gd^T″])WHCTTYFPHH[Phe(4-NH2)]CLYG (disulfide 5-14 (inferred); not fully specified (C-terminus)) [Compound ID 972] | 0% | 3% |
| {Gd^T″}-GK([Gly-Gd^T″])WHCYTK(Gd^T″)FPYHYCVYY (disulfide 5-14 (inferred)) [Compound ID 1011] | 93% | 94% |
| {Gd^T″}-GK([Gly-Gd^T″])WHCTTYFPHHYCL[Phe(4-NH2)]G (disulfide 5-14 (inferred); not fully specified (C-terminus)) [Compound ID 970] | 54% | 53% |
| {Gd^T″}-GK([Gly-Gd^T″])WHCYTYFPHHYCVYG-{AEEA-Gd^T″} (disulfide 5-14 (inferred)) [Compound ID 998] | 75% | 71% |
| {Gd^T″}-GK([Gly-Gd^T″])WHCYTYFPYHYCLYG (disulfide 5-14 (inferred)) [Compound ID 964] | 86% | 88% |
| {Gd^T″}-GK([Gly-Gd^T″])WHC[Tyr(3-I)]TYFPHHYCLYG (disulfide 5-14 (inferred); not fully specified (C-terminus)) [Compound ID 973] | 92% | 85% |
| {Gd^T″}-GK([Gly-Gd^T″])WHCYTK(Gd^T″)FPHHYCVYY (disulfide 5-14 (inferred); not fully specified (C-terminus)) [Compound ID 979] | 86% | 87% |
| {Gd^T″}-GK([Gly-Gd^T″])WHCYTYFPHHYCVYG-{NH(CH2)6NH2-Gd^T″} (disulfide 5-14 (inferred)) [Compound ID 999] | 66% | 65% |
| {Gd^T″}-GK([Gly-Gd^T″])WHCYK(Gd^T″)YFPHHYCLYG (disulfide 5-14 (inferred); not fully specified (C-terminus)) [Compound ID 991] | 11% | 23% |
| {Gd^T″}-GK([Gly-Gd^T″])WYCTTYFPHHYCLYG (disulfide 5-14 (inferred); not fully specified (C-terminus)) [Compound ID 990] | 62% | 59% |
| {Gd^T″}-GK([Gly-Gd^T″])WHCYTYFPHHYCVYG-{1,4 AMB(Gd^T)} (disulfide 5-14 (inferred); reading uncertain) [Compound ID 1000] | 68% | 75% |
